# Source: the supplement of paper PMC10567573
# B1: CDC14A (parent)
# chain: LNLAMVYRYCCKLNKKLKSYSLSR
# Variants of: B1
# Assay: protein stability index of a GFP-peptide fusion (GPS, HEK-293T) (PSI 1-6); higher = more stable
# Details: c terminus: a fixed tail appended
# 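Also: lentivirally expressed fusions sorted by FACS into six bins by GFP to DsRed ratio, PSI derived from sequencing read proportions per bin multiplied by bin number.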
row,Variant,protein stability index
1,LNLAMVYRYCCKANKKLKSYSLSR,2.92
2,LNLAMVYRYCCKGNKKLKSYSLSR,2.49
3,LNLAMMYRYCCKLNKKLKSYSLSR,2.72
4,LNLAMVYRYCCKLNKKLKSYSESR,1.85
5,LNLAMVYRYCCKLNKKLKSYLLSR,2.25
6,LNLAMVYRYCCKLNKKVKSYSLSR,4.14
7,LALAMVYRYCCKLNKKLKSYSLSR,3.34
8,LNLAMVYRYCCKLNKKLKSYSLVR,2.77
9,LNLAMVYRYCCKLNKKLASYSLSR,2.11
10,LNLAMVYIYCCKLNKKLKSYSLSR,2.62
11,LNLAMVYRYCCKLNKKLKDYSLSR,2.28
12,LNLAHVYRYCCKLNKKLKSYSLSR,3.35
13,DNLAMVYRYCCKLNKKLKSYSLSR,3.11
14,LNEAMVYRYCCKLNKKLKSYSLSR,2.32
15,LNLAMVYQYCCKLNKKLKSYSLSR,2.26
16,LNLAMVYRYCCKLNKKLKSYNLSR,2.51
17,LNYAMVYRYCCKLNKKLKSYSLSR,1.81
18,LNLAMVYRYCCKLKKKLKSYSLSR,3.38
19,LNLADVYRYCCKLNKKLKSYSLSR,3.92
20,LNLAMVYRYCCKLNKKLKSYSLSA,3.55
21,LNLAMVYRYCCKLNKKLCSYSLSR,1.73
22,LNLAMVYRYCCKLNKKLKSYSLER,4.66
23,LNLAAVYRYCCKLNKKLKSYSLSR,2.67
24,LNLAMVYRYCCKLNKKLKSYSLSH,2.69

row,Variant,protein stability index
1,LNLAMVYRYCCKLNTKLKSYSLSR,2.62
2,LNLAPVYRYCCKLNKKLKSYSLSR,3.2
3,LNLAMVYRYCCKLNKKLKNYSLSR,2.8
4,LNLAMVYRYCCKLNKKLKSYQLSR,2.86
5,LNLAMVYRYCCKLNKHLKSYSLSR,3.33
6,LYLAMVYRYCCKLNKKLKSYSLSR,2.64
7,LNLAMSYRYCCKLNKKLKSYSLSR,2.5
8,LNLAMVYRYCCKLNKKLKSYILSR,3.96
9,LNLAMVYRYCCKLNKKLKSYSLYR,2.97
10,LNLATVYRYCCKLNKKLKSYSLSR,3.46
11,LNLAMVYRYCCRLNKKLKSYSLSR,2.13
12,LNLAMVYDYCCKLNKKLKSYSLSR,3.23
13,LNLAMVYRYCCKLNKKLVSYSLSR,2.46
14,LNLAMVYRYCCKLNKKLLSYSLSR,1.71
15,LNLAMVYRYCCKLNKKLKSPSLSR,4.23
16,RNLAMVYRYCCKLNKKLKSYSLSR,2.77
17,LNLAMVYRYCCKLNHKLKSYSLSR,3.69
18,LNLAMVYRYCCKLNKKLKSCSLSR,3.44
19,LNLSMVYRYCCKLNKKLKSYSLSR,3.5
20,LNLAMVYRYCCKLNKKLKWYSLSR,3.46
21,LNTAMVYRYCCKLNKKLKSYSLSR,2.79
22,LNLAMVYRYCCKLNKKLKSYSYSR,4.37
23,LNLAMYYRYCCKLNKKLKSYSLSR,2.45
24,LNLAMVYRYCEKLNKKLKSYSLSR,1.62

row,Variant,protein stability index
1,LNLAMVYRYCCKLNKKRKSYSLSR,2.78
2,LNLAMVYRYCCKNNKKLKSYSLSR,1.89
3,LNSAMVYRYCCKLNKKLKSYSLSR,2.2
4,LNLAMVYRYCCKLFKKLKSYSLSR,2.31
5,LNLAMVYHYCCKLNKKLKSYSLSR,4.35
6,YNLAMVYRYCCKLNKKLKSYSLSR,2.49
7,LNLAMVYRYCCKLNKKLKSYSLIR,3.46
8,LNLAMVYRYTCKLNKKLKSYSLSR,2.32
9,LELAMVYRYCCKLNKKLKSYSLSR,3.15
10,LNLAMVYRYCCKLNKKLESYSLSR,3.12
11,LNQAMVYRYCCKLNKKLKSYSLSR,2.61
12,LNLAMVYRYCCKLNKELKSYSLSR,1.9
13,LNLAMVYRYECKLNKKLKSYSLSR,1.98
14,LNLAMVYRYCCKLHKKLKSYSLSR,3.21
15,LNLPMVYRYCCKLNKKLKSYSLSR,3.19
16,LNLAMVGRYCCKLNKKLKSYSLSR,2.43
17,LNLAMVYRYCCKLNKKLKSYGLSR,2.26
18,LNLAMVNRYCCKLNKKLKSYSLSR,2.46
19,LNLAMVYRYPCKLNKKLKSYSLSR,2.05
20,LNLAMAYRYCCKLNKKLKSYSLSR,3.5
21,LNVAMVYRYCCKLNKKLKSYSLSR,2.59
22,LNLAMVYRYCCKLNKKLKSYVLSR,4.29
23,LNLAMVYRYCCKLNKKLKLYSLSR,2.5
24,LNLAMVYPYCCKLNKKLKSYSLSR,2.09

row,Variant,protein stability index
1,LNLAMVYRYCCKLNKKLKSQSLSR,3.1
2,LNLAMVYRYCCKLNKKYKSYSLSR,3.33
3,LNLAMVYRYWCKLNKKLKSYSLSR,3.64
4,LNLAMTYRYCCKLNKKLKSYSLSR,2.46
5,LNLAMVYGYCCKLNKKLKSYSLSR,3.71
6,LNLAMVYRYCCKLNKKGKSYSLSR,2.85
7,LNLRMVYRYCCKLNKKLKSYSLSR,3.08
8,LNLAMVYRYCCKLNKKLKRYSLSR,3.44
9,LNLAMVYRYCCKLNKFLKSYSLSR,1.63
10,LNLAMVYVYCCKLNKKLKSYSLSR,3.11
11,LNLAMVYRYCCKLNKKLKSYWLSR,2.86
12,LNLAMVYRYCCKLGKKLKSYSLSR,3.52
13,LNLAMVYRQCCKLNKKLKSYSLSR,3.9
14,LNLAMVYRYCCMLNKKLKSYSLSR,2.19
15,LTLAMVYRYCCKLNKKLKSYSLSR,2.24
16,LNLAMVYLYCCKLNKKLKSYSLSR,3.17
17,LNMAMVYRYCCKLNKKLKSYSLSR,2.88
18,LNLAMVYRYCMKLNKKLKSYSLSR,2.74
19,FNLAMVYRYCCKLNKKLKSYSLSR,2.51
20,LNLAMVYYYCCKLNKKLKSYSLSR,2.67
21,LNLAMVYRACCKLNKKLKSYSLSR,2.3
22,LNLAMVYRYCCKLNKKLKSYELSR,3.12
